Measured values reported in patent US6210929A, “Fusion protein comprising a furin derivative or a derivative of a furin analogue and a heterologous sequence” (Baxter Aktiengesellschaft, priority 1995, dated 2001).

B1: r-furinΔTM-His: furin with transmembrane and cytoplasmatic part (amino acids 708 to 794) deleted, six histidine residues appended after amino acid 707; SEQ.ID.NO. 9 (protein)
chain: MELRPWLLWVVAATGTLVLLAADAQGQKVFTNTWAVRIPGGPAVANSVARKHGFLNLGQIFGDYYHFWHRGVTKRSLSPHRPRHSRLQREPQVQWLEQQVAKRRTKRDVYQEPTDPKFPQQWYLSGVTQRDLNVKAAWAQGYTGHGIVVSILDDGIEKNHPDLAGNYDPGASFDVNDQDPDPQPRYTQMNDNRHGTRCAGEVAAVANNGVCGVGVAYNARIGGVRMLDGEVTDAVEARSLGLNPNHIHIYSASWGPEDDGKTVDGPARLAEEAFFRGVSQGRGGLGSIFVWASGNGGREHDSCNCDGYTNSIYTLSISSATQFGNVPWYSEACSSTLATTYSSGNQNEKQIVTTDLRQKCTESHTGTSASAPLAAGIIALTLEANKNLTWRDMQHLVVQTSKPAHLNANDWATNGVGRKVSHSYGYGLLDAGAMVALAQNWTTVAPQRKCIIDILTEPKDIGKRLEVRKTVTACLGEPNHITRLEHAQARLTLSYNRRGDLAIHLVSPMGTRSTLLAARPHDYSADGFNDWAFMTTHSWDEDPSGEWVLEIENTSEANNYGTLTKFTLVLYGTAPEGLPVPPESSGCKTLTSSQACVVCEEGFSLHQKSCVQHCPPGFAPQVLDTHYSTENDVETIRASVCAPCHASCATCQGPALTDCLSCPSHASLDPVEQTCSRQSQSSRESPPQQQPPRLPPEVEAGQRLRAGHHHHHH
modifications: His6 tag
B2: CHO-r-furinΔCys-spacer-His: r-furinΔCys (to amino acid 585) with spacer Ala-Ala-Gly-Gly-Ala-Ala and six histidine residues; SEQ.ID.NO. 21 (protein)
chain: MELRPWLLWVVAATGTLVLLAADAQGQKVFTNTWAVRIPGGPAVANSVARKHGFLNLGQIFGDYYHFWHRGVTKRSLSPHRPRHSRLQREPQVQWLEQQVAKRRTKRDVYQEPTDPKFPQQWYLSGVTQRDLNVKAAWAQGYTGHGIVVSILDDGIEKNHPDLAGNYDPGASFDVNDQDPDPQPRYTQMNDNRHGTRCAGEVAAVANNGVCGVGVAYNARIGGVRMLDGEVTDAVEARSLGLNPNHIHIYSASWGPEDDGKTVDGPARLAEEAFFRGVSQGRGGLGSIFVWASGNGGREHDSCNCDGYTNSIYTLSISSATQFGNVPWYSEACSSTLATTYSSGNQNEKQIVTTDLRQKCTESHTGTSASAPLAAGIIALTLEANKNLTWRDMQHLVVQTSKPAHLNANDWATNGVGRKVSHSYGYGLLDAGAMVALAQNWTTVAPQRKCIIDILTEPKDIGKRLEVRKTVTACLGEPNHITRLEHAQARLTLSYNRRGDLAIHLVSPMGTRSTLLAARPHDYSADGFNDWAFMTTHSWDEDPSGEWVLEIENTSEANNYGTLTKFTLVLYGTAPEGLPVPPESSAAGGAAHHHHHH
modifications: spacer and His6 tag
notes: r-furinΔCys (to amino acid 585) with spacer Ala-Ala-Gly-Gly-Ala-Ala and six histidine residues; 21

Tests used:
Boc-Arg-Val-Arg-Arg-AMC = assay: AMC peptide substrate test (fluorogenic substrate test) of furin or fusion protein activity; type: biochemical; details: for Intensity of the fluorescent emission at 438 nm: supernatants of permanent CHO cell clones, 2 hours of incubation, 30° C.
Description: By the action of furin, AMC (7-amino-4-methyl coumarin) is cleaved from the substrate. […] The fluorescent spectroscopic detection of the furin or fusion protein activity was effected at 30° C. in stirred quartz cells in a test volume of 2 ml. 1.7 ml of 100 mM HEPES buffer (pH 7.4, 1 mM CaCl2 and 1 mM 2-mercaptoethanol) were mixed with 0.1 ml of a substrate solution (final substrate concentration in the test: 0.1 mM) and 0.2 ml of the sample. The fluorescence was excited at a wave length of 380 nm. After 2 hours of incubation, the fluorescent emission was measured at 438 nm (Table 1).
The supernatants of various permanent CHO-r-furinΔTM-His cell clones and, as the controls, of CHO-rvWF/r-furin cells and CHO cells were subjected to the AMC peptide substrate test. The intensity of the fluorescent emission at 438 nm reflects the activity.
The activity of CHO-r-furinΔTM-His cells from cell culture supernatants before their binding to the column matrix, the individual washing fractions as well as the eluate were determined by means of AMC peptide substrate test.
The influence of imidazole on the furin activity was determined.
For this, 1 ml of Ni^2 +-NTA matrix (Quiagen), equilibrated in serum-free cell culture medium was loaded at 4° C. with 10 ml of imidazole-free CHO-r-furinΔCys-spacer-10xHis cell culture supernatant, and, as the negative control, with conditioned medium of non-manipulated CHO cells, respectively. Then the matrix was washed three times at room temperature with serum-free cell culture medium, and subsequently the fluorogenic substrate was contacted at 30° C. with immobilized r-furinΔCys-spacer-10xHis. As the positive control, CHO-r-furinΔCys-spacer-10xHis cell culture supernatant was tested for its ability to react fluorogenic substrate in solution.

pro-vWF = assay: Co-expression of pro-vWF and r-furin in CHO cells, Western blot of cell culture supernatants; type: cell-based, human
Source text: The expression plasmid for rvWF, phAct-vWF (FIG. 1), was co-transfected with the selection marker plasmid pSV-rdhfr (FIG. 1) in dhfr-deficient CHO cells, the efficiently pro-rvWF-expressing clone CHO-rvWF was selected under selection conditions, and this clone was sub-cloned to stability (Fischer et al., 1994. Febs Lett. 351:345-349). For a further analysis and for rvWF expression and function studies, the cells were at first washed with PBS several times, and subsequently, unless indicated otherwise, incubated in selection medium without serum, with a regular 24 hour medium exchange.
Approximately 40% of the rvWF secreted into the cell supernatant of CHO-rvWF was unprocessed (FIG. 2 II A). To increase the efficiency of the propeptide cleavage, the r-furin expression vector pSV-r-furink in the following was co-transfected with the selection marker plasmid pUCSV-neo into the CHO-rvWF cell clone. Under selection conditions (500 μg G418/ml), clones were identified which express r-furin in addition to rvWF (CHO-rvWF/r-furin; FIGS. 2 I A, B).
The detection of rvWF in the cell culture supernatant was effected by means of Western blot analysis (FIGS. 2 I A and II A). For this, 10 μl of reduced cell culture supernatant were separated by means of SDS-PAGE (Lammli, Nature 227:680-685, 1970), and subsequently the proteins were transferred to nitrocellulose membranes by means of the BioRad Mini Trans-Blot System (BioRad Laboratories, Richmond, Calif., USA). The Protoblot-System from Promega (Madison, Wis., USA) was used to visualize rvWF secreted into the cell culture supernatant. Rabbit anti-vWF serum (Order No. A 082) from Dakopatts (Glostrup, Denmark) was used as the antibody for vWF binding.
The detection of r-furin in the cell culture supernatant was also effected by means of Western blot analysis (FIGS. 2 I B and II B). r-Furin was visualized by using the anti-h-furin murine monoclonal antibody MON 148 (van Duijnhoven et al., Hybridoma 11: 71-86, 1992) and, as the second antibody, anti-murine IgG alkaline phosphatase conjugated goat serum (Sigma A 4656).

pro-rvWF = assay: In vitro cleavage of pro-rvWF by r-furin or fusion protein, Western blot analysis; type: biochemical, human; details: for in vitro processing of pro-rvWF in mixed supernatants: CHO-rvWF/r-furin and CHO-rvWF supernatants 1:1, 37° C.
Description: CHO-rvWF, CHO-rvWF/r-furin, CHO-rvWF and CHO (at a ration of 1:1), as well as CHO-rvWF and CHO-rvWF/r-furin (at a ration of 1:1) were mixed accordingly and incubated at 37° C.
Aliquots of the reaction formulations were tested for processed vWF by means of Western blot analysis immediately before incubation and after mixing of the cell culture supernatants, respectively; further aliquots were taken at time intervals of 24 hours each and assayed.
For this, 20 ml of serum-free cell culture supernatant of CHO-rvWF cells, adjusted to 2 mM imidazole, were passed over the column. […] Samples of the cell culture supernatant which were not subjected to a protease treatment served as the controls.
The negative control, an unmanipulated CHO cell culture supernatant (without r-furinΔCys-spacer-10xHis) was processed in an analogous manner on the Ni^2+ -NTA matrix.
Aliquots of the reaction mixtures were taken at the beginning of the test as well as at various points of time and frozen.
The Fractogel EMD® tentacle gel was loaded with Ni^2+ ions according to the manufacturer's instructions and equilibrated with fresh serum-free cell culture medium. Subsequently, the column was loaded with serum-free CHO-r-furinΔCys-spacer-10xHis supernatant. Washing steps were effected by serum-free cell culture medium, containing increasing imidazol concentrations up to 40 mM. Subsequently, the pro-protein substrate was guided over the column as serum-free CHO supernatant.

rFX = assay: FX activity by FX-Coatest-Kit (RVV activation, chromogenic substrate S-2337); type: biochemical, human
Description: For this, 50 μl of each supernatant were admixed with 50 μl of FX-deficient human plasma, and according to the protocol of the producer, rFX was reacted to rFXa with snake venom (RVV) in the presence of CaCl2 ; rFXa subsequently hydrolyses the chromogenic substrate (S-2337) and leads to the liberation of the yellow-coloured paranitroaniline. Since the amount of rFXa and the colour intensity are proportional to each other, the amount of rFX activatable to rFXa/ml cell culture supernatant can be determined with the help of a calibration straight line, interpolated from values of the plasma dilution series.

single-chain rFX = assay: In vitro cleavage of the propeptide and processing of single-chain rFX, Western blot analysis; type: biochemical, human
Description: Aliquots each of the reactions were tested for processed rFX by means of Western blot analysis prior to incubation (t=0) and after various incubation periods (t=2, 4, 6 hours) (FIG. 10). The detection of rFX in the cell culture supernatants was effected by means of anti-human FX antiserum (FIG. 10A) and of a monoclonal antibody specific to the light chain of FX (FIG. 10B).

Molecule	Intensity of the fluorescent emission at 438 nm (Boc-Arg-Val-Arg-Arg-AMC)	processing of pro-vWF in co-expressing cells (pro-vWF; medium exchange every 8 hours, serum-free)	processing of pro-vWF in co-expressing cells (pro-vWF; serum-free 24 hour cell culture supernatants)	processing of pro-vWF in co-expressing cells (pro-vWF; serum-free 24 hour cell culture supernatants, listed as CHO rvWF/r-furin)	in vitro processing of pro-rvWF in mixed supernatants (pro-rvWF; 48 h and 96 h)	in vitro processing of pro-rvWF in mixed supernatants (pro-rvWF; after 24 hours)	INTENSITY (AMC peptide substrate test) (Boc-Arg-Val-Arg-Arg-AMC; 1st washing fraction of Ni2+-NTA column)	INTENSITY (AMC peptide substrate test) (Boc-Arg-Val-Arg-Arg-AMC; 2nd washing fraction of Ni2+-NTA column)	INTENSITY (AMC peptide substrate test) (Boc-Arg-Val-Arg-Arg-AMC; 3rd washing fraction of Ni2+-NTA column)	INTENSITY (AMC peptide substrate test) (Boc-Arg-Val-Arg-Arg-AMC; eluate from Ni2+-NTA matrix (buffer A containing 200 mM imidazole))	INTENSITY (AMC peptide substrate test) (Boc-Arg-Val-Arg-Arg-AMC; roller supernatant before binding to the Ni2+-NTA matrix)	processing of rpro-vWF on immobilized fusion protein (pro-rvWF; Ni2+ column, CHO-rvWF supernatant with 2 mM imidazole passed over, column eluate)	Activity (rFX; t = 6 hours, supernatants 1:1, 37° C.) [mU/ml]	% Functional FX (rFX; t = 6 hours, from activity and ELISA antigen) [%]	unspecific proteolytic activity (OD values) in mixture of CHO and CHO-r-furinΔTM-His supernatants (rFX; without rFX, % of the proteolytic activity)	processing of rFX (single-chain rFX)
CHO-rvWF/r-furin: supernatant or cells of CHO clone co-expressing rvWF and complete recombinant human furin (r-furin), used as source of r-furin	444	significant amounts of pro-rvWF	only the completely processed rvWF	completely processed	completely processed vWF	only a slight portion of unprocessed pro-vWF	–	–	–	–	–	–	–	–	–	–
B1	2524	–	–	–	–	–	340	280	121	2820	2664	only completely processed vWF	344	43	less than 7%	–
B2	–	–	–	–	–	–	–	–	–	–	–	–	–	–	–	demonstrated
